This note sets out measurements from FireProtDB (doi:10.1093/protein/12.6.497).

The conditions of the series: Sus scrofa, pH 7, 20 °C, GdnHCl, Fluorescence, PIPES 50 mM, reversible: yes.

On to “Phospholipase A2, major isoenzyme H70K, P00592”, for which, for the setting “structure 1P2P”, the “ddG of mutation (higher = less stable)” value worked out at 3.21 kcal/mol, the denaturant m value came out at 0.65 kcal/mol/M, the “denaturant midpoint (higher = more stable)” value (“denaturant midpoint” for short) is 5.2 M and the unfolding free energy stood at 3.3 kcal/mol.
The like results for “Phospholipase A2, major isoenzyme H70N, P00592” were, in that order, 2.28 kcal/mol, 0.84 kcal/mol/M, 5.1 M and 4.23 kcal/mol.
“Phospholipase A2, major isoenzyme H70Q, P00592”: under “structure 1P2P”, the “ddG of mutation (higher = less stable)” value was 1.03 kcal/mol, the denaturant m value worked out at 0.91 kcal/mol/M, the “denaturant midpoint” value was 6.1 M and the unfolding free energy is 5.48 kcal/mol.
For the substance “Phospholipase A2, major isoenzyme wild type, P00592”, the denaturant m value was found to be 1 kcal/mol/M, the “denaturant midpoint” value was found to be 6.4 M and the unfolding free energy worked out at 6.51 kcal/mol.
